Results on four molecules are retold here after US12742015 (dated 2026).

The target of assay [1] is T1, OX40 on T cells (human, UniProt P43489).
T1 chain: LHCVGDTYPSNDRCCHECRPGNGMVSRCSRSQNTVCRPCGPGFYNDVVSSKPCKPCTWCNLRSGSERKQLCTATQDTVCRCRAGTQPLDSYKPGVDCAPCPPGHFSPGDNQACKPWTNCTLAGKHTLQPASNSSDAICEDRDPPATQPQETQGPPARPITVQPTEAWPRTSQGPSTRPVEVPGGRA
Nature of the assay: other, CD8+ T cells, apparent affinity.

Assay [2] concerns the target T1, OX40 on T cells. Nature of the assay: other, CD4+ T cells, apparent affinity.
The next assay addresses T2, FcγRIIa 167R (human, UniProt P12318).
T2 chain: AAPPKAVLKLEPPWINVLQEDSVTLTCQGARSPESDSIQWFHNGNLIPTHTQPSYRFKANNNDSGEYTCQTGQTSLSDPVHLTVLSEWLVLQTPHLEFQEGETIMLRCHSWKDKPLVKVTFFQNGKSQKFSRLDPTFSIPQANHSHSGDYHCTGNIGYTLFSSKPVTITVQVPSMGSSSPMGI
Nature of the assay: SPR. (In general: In SPR one partner is held on a chip, and binding of the other changes the refractive index at the surface.)

The target in a further assay is T3, FcγRIIb (human, UniProt P31994).
T3 chain: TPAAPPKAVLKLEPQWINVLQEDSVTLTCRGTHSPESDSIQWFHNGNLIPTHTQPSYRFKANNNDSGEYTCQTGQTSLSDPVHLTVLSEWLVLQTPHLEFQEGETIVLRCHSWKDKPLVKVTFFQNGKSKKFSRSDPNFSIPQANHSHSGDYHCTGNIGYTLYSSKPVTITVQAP
Nature of the assay: SPR.

The target of another assay is FcRn (human, UniProt P55899). Nature of the assay: SPR, pH 7.4.
Sequence of FcRn (P55899 24-297, chain 1 of 2): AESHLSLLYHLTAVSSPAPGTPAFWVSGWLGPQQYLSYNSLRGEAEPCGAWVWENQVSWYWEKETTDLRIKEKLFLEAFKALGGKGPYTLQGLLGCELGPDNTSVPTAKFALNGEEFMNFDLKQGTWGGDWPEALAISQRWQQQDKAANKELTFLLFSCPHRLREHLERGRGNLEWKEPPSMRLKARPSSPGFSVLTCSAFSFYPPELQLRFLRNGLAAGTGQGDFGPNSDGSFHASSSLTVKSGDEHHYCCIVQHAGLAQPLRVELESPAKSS
Sequence of FcRn (chain, as listed by the source, chain 2 of 2): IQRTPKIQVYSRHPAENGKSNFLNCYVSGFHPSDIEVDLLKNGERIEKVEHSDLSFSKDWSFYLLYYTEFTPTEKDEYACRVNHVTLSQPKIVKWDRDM

B1: GBR 830 (OX40 binding) (antibody, V domains shown)
VH: QVTLKESGPALVKPTQTLTLTCSFSGFSLSTSGMGVGWIRQPPGKALEWIAHIWWDDDKYYNTALKTRLTISKDTSKNQVVLTMTNMDPVDTATYYCARIDWDGFAYWGQGTLVTVSS
VL: EIVLTQSPATLSLSPGERATLSCRASSSVSYMHWYQQKPGQAPRPWIYATSNRATGIPARFSGSGSGTDYTLTISSLEPEDFAVYYCQQWSSNPWTFGQGTKVEIK
In the case of B1, the Kd with OX40 on T cells [1] was determined as 3.46 nM; with OX40 on T cells [2], 1.25 nM.

B2: MAB10 full (antibody)
chain 1: QVTLKESGPALVKPTQTLTLTCSFSGFSLSTSGMGVGWIRQPPGKALEWIAHIWWDDDKYYNTALKTRLTISKDTSKNQVVLTMTNMDPVDTATYYCARIDWDGFAYWGQGTLVTVSSASTKGPSVFPLAPSSKSTSGGTAALGCLVKDYFPEPVTVSWNSGALTSGVHTFPAVLQSSGLYSLSSVVTVPSSSLGTQTYICNVNHKPSNTKVDKKVEPKSCDKTHTCPPCPAPELLGGPSVFLFPPKPKDTLYITREPEVTCVVVDVSHEDPEVKFNWYVDGVEVHNAKTKPREEQYNSTYRVVSVLTVLHQDWLNGKEYKCKVSNKALPAPIEKTISKAKGQPREPQVYTLPPSRDELTKNQVSLTCLVKGFYPSDIAVEWESNGQPENNYKTTPPVLDSDGSFFLYSKLTVDKSRWQQGNVFSCSVMHEALHNHYTQKSLSLSPGK
chain 2: EIVLTQSPATLSLSPGERATLSCRASSSVSYMHWYQQKPGQAPRPWIYATSNRATGIPARFSGSGSGTDYTLTISSLEPEDFAVYYCQQFGAWPWTFGQGTKVEIKRTVAAPSVFIFPPSDEQLKSGTASVVCLLNNFYPREAKVQWKVDNALQSGNSQESVTEQDSKDSTYSLSSTLTLSKADYEKHKVYACEVTHQGLSSPVTKSFNRGEC
Take B2: the binding result in the assay with FcγRIIa 167R, in the assay with FcγRIIb and in the assay with FcRn was “no binding” throughout.

B3: GBR 830 full (antibody)
chain 1: not shown
chain 2: EIVLTQSPATLSLSPGERATLSCRASSSVSYMHWYQQKPGQAPRPWIYATSNRATGIPARFSGSGSGTDYTLTISSLEPEDFAVYYCQQWSSNPWTFGQGTKVEIKRTVAAPSVFIFPPSDEQLKSGTASVVCLLNNFYPREAKVQWKVDNALQSGNSQESVTEQDSKDSTYSLSSTLTLSKADYEKHKVYACEVTHQGLSSPVTKSFNRGEC
As for B3, the binding result with FcRn was “no binding”.

B4: MAB1 full (antibody)
chain 1: not shown
chain 2: EIVLTQSPATLSLSPGERATLSCRASSSVSYMHWYQQKPGQAPRPWIYATSNRATGIPARFSGSGSGTDYTLTISSLEPEDFAVYYCQQFGAWPWTFGQGTKVEIKRTVAAPSVFIFPPSDEQLKSGTASVVCLLNNFYPREAKVQWKVDNALQSGNSQESVTEQDSKDSTYSLSSTLTLSKADYEKHKVYACEVTHQGLSSPVTKSFNRGEC
For the molecule B4, the binding result with FcRn is “no binding”.
